Measurements: PMC9355956

Tested on: CC(C)C[C@H](NC(=O)[C@H](CCC(N)=O)NC(=O)[C@H](CCCCN)NC(=O)[C@H](CCCNC(=N)N)NC(=O)[C@@H]1CCCN1C(=O)[C@H](C)NC(=O)[C@H](CCCCN)NC(=O)CNC(=O)CNC(=O)[C@@H](NC(=O)[C@H](CO)NC(=O)[C@H](CCCCN)NC(=O)[C@H](CCCNC(=N)N)NC(=O)[C@H](C)NC(=O)[C@@H](NC(=O)[C@H](CCC(N)=O)NC(=O)[C@H](CCCCN(C)C)NC(=O)[C@@H](NC(=O)[C@H](CCCNC(=N)N)NC(=O)[C@H](C)N)[C@@H](C)O)[C@@H](C)O)[C@@H](C)O)C(=O)N[C@@H](C)C(=O)O
Experiment: purified protein, by the assay type
Settings: other: substrate, 20 nM LSD1
Method: The activity of hSMOX, hPAOX, and LSD1 enzymes was measured using the HyPerBlu chemiluminescent reagent for the direct detection of the hydrogen peroxide product. […] Hydrogen peroxide product formation was monitored 30 min after the addition of HyPerBlu on a PHERAstar microplate reader (BMG LABTECH, Cary, NC). All compounds were spotted into the assay plates using Echo acoustic dispensing technology (BeckmanCoulter, Indianapolis, IN). Unless otherwise stated, all reactions were carried out in 384-well assay format.
2 µL/well of 2x substrate was dispensed into the assay plate followed by 2 µL/well of 2x enzyme to initiate the reactions. […] The data were fit to the 4-parameter IC50 equation in GraphPad Prism.
Briefly, 2.5 µL/well of the twofold substrate solutions prepared in buffer was added to the assay wells followed by 2.5 µL/well of the 2x enzyme to initiate the reactions.
The initial velocity data were fit to the Michaelis-Menten equation in GraphPad Prism. Y=Vmax*X/(Km+X) where Vmax is the maximal velocity, X is the substrate concentration and Km is the Michaelis-Menten constant. The kcat value was determined by dividing Vmax value by the enzyme concentration.

Substance: LSD1 (Homo sapiens)
- Km: 3.8 ± 0.35 µM
